# Data as given in the supplement of paper PMC12764529.
# ± gives the half width of the 95% confidence interval.
# Assay: folding stability dG unfold (combined trypsin and chymotrypsin); higher = more stable
# Method in brief: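 How resistant each design was to proteolysis was captured as K50, inferred by Bayesian fitting of sequencing counts. Unfolding free energy was then derived relative to a sequence-predicted unfolded-state K50 and a shared folded-state K50, per protease or combined. Digestion used trypsin and chymotrypsin at 11 threefold-diluted concentrations plus a no-protease condition, on mini-proteins under 80 residues without cysteine in a PA-tagged cDNA display construct. Designs were kept only when AlphaFold2 dimer inter-PAE was above 15.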
row,Sequence,folding stability dG unfold [kcal/mol]
1,SAGGMLKIKVELFYPDGSTRTLPVPEEIQKEIVEALKKGEKIPEKPKKELEDIAKKEGYTIKIIELLSAGGS [r8_159_JUSTAS],1.3 ± 0.18
2,SAGGSAGGSAGMPLKVTVLSTSPLLESSELVTVKITPPDGSVVVIPSSVSLEEVEKLLLSSAGGSAGGSAGG [r17_353_JUSTAS],0.558 ± 0.051
3,SAGGMKKIKIVVKVPPNVTAEELAKALEDELKKKGYEVKVTVKVVKKPDGSLYVVIEVEIRPKNEKPSAGGS [r16_128_TrROS_Hall],3.52 ± 0.099
4,SAGGSAGGMIPLEEIEIEEITEETLPSNEKVITVKVKFPDGTKTLTFEPNEGEEKILEKIKELTSAGGSAGG [r6_233_JUSTAS],0.734 ± 0.082
5,SAGGMNLMIKIENNGEPITFMINSPEDAEEIASNLPELGYPIEVKKLEPQRNEDGNPMVMVEIRIKPSAGGS [r8_336_TrROS],1.21 ± 0.23
6,SAGGKWRTIQLPGISIQLNPKDGTITVMMPSDMMEELKEAFGPGFEIDEIHHHPDGWMQMTIPIKPPSAGGS [r8_415_TrROS],1.57 ± 0.15
7,SAGMEFPANTTVELTLTLTFPVPLPGEGTGPVTLTYTLRLEVRPKPRIPLPDPALRELLERLGLSPDLLSAG [r5_624_TrMRF],4.43 ± 0.4
8,SMTVKIELEVEIEVPETPEELRKLAEALAEELGIEEVKVVEIEYDPETKTVRVKVEITVKLPPPPPEEEESA [r9_918_TrROS_Hall],3.13 ± 0.21
9,SAGGSAGGSAGFEAFVEEIKKDGDYKVEAFVFDNESGIKTLVIVLESPEEDKYEIRTFNISAGGSAGGSAGG [r11_753_TrMRF],0.829 ± 0.14
10,SAGGSANLAETPPVTTTETIEIKVPDPGKPLPITEEDVKKKYEGKNTKVEISVEGDKVIITITTKESAGGSA [r15_377_JUSTAS],0.68 ± 0.24
11,SAGGSAGGSAGPNMVPIGKLTIEIRNPDNGNPLRIRIDLYVVPAPDGWMIALRILDIEPPSAGGSAGGSAGG [r11_113_TrROS],3.7 ± 0.26
12,SAGGSAGGSAGPIKITSVEYDPNSGTIIARFPDGVVIRIKMNPDGNFKIDEIYPIKPGDLSAGGSAGGSAGG [r17_61_TrROS],2.02 ± 0.14
13,SAGGSAGGSAMTITITGLSPEQIEEAAKALGATVTFDKETKTVTITVSPEQLEKLKELLEKSAGGSAGGSAG [r3_354_TrROS_Hall],3.58 ± 0.18
14,SAGGSAGGSMEIIPPEELLARLSPEELVLVRLPTAPRLLPREELRLLPRDIPVEVEVIPRLPPSAGGSAGGS [r12_501_TrMRF],1.5 ± 0.46
15,SGSPSDDIVTTPLPGPSERATFPDGSSISRSPAGVTTTTSPTSITTTTTTPSATVTSTTTSLPPPSPSAPSA [r9_901_JUSTAS],-0.0591 ± 0.07
16,SMVKIYAAPNVPPEQREAIERLVKRILENPDIPIDPETIGKLIKEEAGNPELTIDRIEILPLVPPGVAEKSA [r9_620_TrMRF],0.794 ± 0.099

row,Sequence,folding stability dG unfold [kcal/mol]
1,SAGMPKPIRLLVRNPETGKYFLVEVEEPEELVTVTLLDPETGEVRAVFEGPLEEIIAALEAEGFEVEPVSAG [r5_291_TrMRF],4.442 ± 0.036
2,SAGGSAGGSAGTATLTDPNGVRIEVFPDGTVRATVYRPDPSTGEWKLAATFTFPLHPDAFSAGGSAGGSAGG [r11_497_TrMRF],1.94 ± 0.066
3,SGITPEQIEELAREIADLFPDVEIEIYPGLEPSIFDGPGAVAVIEREEGRGYITIYFPETGEPLVIEVPDSA [r9_1062_TrMRF],1.37 ± 0.2
4,SAGGSAGGSAMTFTVNSEEEVEKLKKLGGVTKTSEEPGKVTLSAPNLPPELQEKIKEVIQKSAGGSAGGSAG [r3_398_JUSTAS],-0.111 ± 0.26
5,SMTKTIPVTIEVDPSLSEEEIEALVEKVKEEIKEKAEAEGGKVKVTVTIEPDPNKPVVHGTITITKPKKLSA [r9_1161_JUSTAS],0.165 ± 0.13
6,SAGGSAGGSAGKKVTLKVLVKNENGKLYMFEAEYEFDENGKLVKVKVKVYEVEVKDLKLPSAGGSAGGSAGG [r11_1019_TrROS_Hall],2.86 ± 0.16
7,SAGMKIVVTLPDGWTATSDPSTGLITITDPKTGEPLLGKIPSSEPNKVTLYDPNNGKPLRELDIDEVEGSAG [r5_761_JUSTAS],0.581 ± 0.053
8,SAGMGPNEVKPIEIEFEVYETGEGEPYLVGKAIAKLYVDPVEGTVRLEIKDPEKPEPFITFEFPVEEISAGG [r19_413_TrMRF],1.94 ± 0.065
9,SAGGSAGGSAGGMATTTTKIEIYPGTGKVKTTTTVTDPSTGTTTTTTTTEETSLEELTSSAGGSAGGSAGGS [r10_173_JUSTAS],0.345 ± 0.13
10,SAGKVVKISAPIEVLRNIPNVLELYVVGDKVYLVVPNELLVVDLDLPPLVPTVPESVPEELALLGGLLGSAG [r5_2_TrMRF],1.48 ± 0.13
11,MRTVLLPIAGLPPEQVREAIERAVRAAREAGQPDTTLIVFNPGPAEQVEETTRLVQELADEPDFTVTVIPIS [r1_387_TrMRF],0.382 ± 0.14
12,SAGGSAGGSAMTIEELAKKGYEIRIVGPDGKVRTFKVGESLEEIAEKLGLAPGAKIEIRKVSAGGSAGGSAG [r3_216_TrROS_Hall],1.88 ± 0.049
13,SAGGSAGGYIVKIKMPKFPHVFIFPPEMPPKQFADEIRRRFGNPDAPITDITIQPVTPEELKKLSAGGSAGG [r6_122_TrROS],1.16 ± 0.12
14,SAGGSAMTLEFKILFPNKTKEEAIKAIEEIPEEIKKNIKKIEILKIDPVGDEVIATLKIEVDPEFLSAGGSA [r15_244_TrMRF],1.37 ± 0.29
15,SKKPKVEIEIEIPSVISATPIPNTDEVLVNVPYRVKIKVIGEGPPKEVEVDLPGIMLVSDFIDELKKLLGSA [r9_656_TrMRF],1.74 ± 0.098
16,SAGGMTFTITVTIPAKEKFYDPSKGIWRERELNRVITIPFSSSDIEKAKEEVRSKLPPDKYKITSVDSAGGS [r16_459_JUSTAS],1.19 ± 0.12
